Data taken from patent publication US7951385B2, “Probiotic strain and antimicrobial peptide derived therefrom” (Cipla Medpro Research and Development (Pty) Ltd., priority 2006, dated 2011).
Read-outs that look alike come from different tables or passages of the source.

Columns and labels:
[1] = system: pathogenic bacteria (Listeria, Bacillus and Staphylococcus); assay: Challenge study with red meat as model, PE-bound peptide; conditions: surface (PE)-bound peptide
Experimental: Peptide ST4SA adhered strongly, and it would seem irreversibly, to the PE film. Release of peptide ST4SA from the surface of PE was only possible after 1 h with a current of 30 mA. […] The encapsulation of the antimicrobial peptide in the polymer leads to a slow release of the antimicrobial peptide and an extended period of treatment of a microbial infection.

[2] = system: Lactobacillus sakei DSM 20017; assay: Binding of peptide ST4SA to polyethylene (PE); format: physicochemical
Experimental: Binding of peptide ST4SA to polyethylene (PE) was tested. PE film was cut into sections of 5×5 cm and soaked for 1 h in a solution of 60% isopropanol and peptide ST4SA (activity level: 102 400 AU/ml). The PE sections were air-dried (20 min at 60° C.) and assayed for antimicrobial activity by using the standard agar diffusion method. The plates, seeded with L. sakei DSM 20017, were incubated for 24 h at 30° C. and examined for zones of growth inhibition.
The strength of binding was determined by soaking the peptide-coated PE film in SDS-buffer, followed by electro-eluting peptide ST4SA from the film with a current of 30 mA for 2 h (room temperature, i.e. ca. 25° C.). Samples were taken at regular time intervals and tested for antimicrobial activity. Protein concentrations were determined by using the Bradford method. Electro-eluted film was tested for antimicrobial activity by using the agar diffusion method as before.

pathogens tested = assay: Adhesion of peptide ST4SA to pathogens (summary); format: binding; conditions: conclusion for the pathogens tested (Table 7)
From the text: Binding of peptide ST4SA to target cells is important to ensure penetration of the peptide. The ability of peptide ST4SA to adhere to pathogens was studied and the results were expressed as a percentage binding to the pathogens (Table 7). […] Adhesion of peptide ST4SA to the target cell leads to penetration and disruption of the cell membrane (FIG. 14).

[3] = format: physicochemical
Experimental: The stability of peptide ST4SA, suspended in sterile distilled water, was tested at temperatures ranging from −20° C. to 60° C. over 42 days (FIG. 12). The peptide remained stable at −20° C. for 42 days and for three weeks at 4° C. […] Peptide ST4SA in powder form did, however, remain stable for 6 months at room temperature (25° C.). Peptide ST4SA will be produced in powder form and marketed as such. Once dissolved in sterile distilled water, peptide ST4SA may be kept for three weeks at 4° C. (see FIG. 12).

[4] = system: tumour necrosis factor (TNF), interferon γ (IFN); assay: Immune modulation (cytokine RNA hybridization, ileum and colon); format: in vivo, rat
Experimental: Total RNA was extracted from the frozen ileum and colon samples using Trizol reagent. The concentration of RNA was determined by measuring the absorbance at 260 nm using a Nanodrop spectrophotometer, after DNase treatment had been completed. Each RNA sample was diluted to a concentration of 42 ng/μl. A total of 5 μg of each sample was transferred in triplicate onto a nylon membrane using a slot blot apparatus. The membrane was then probed with either a tumour necrosis factor (TNF), interferon γ (IFN) or β-actin DNA probe amplified from rat genomic DNA and labeled with DIG. The membrane was exposed to X-ray film overnight and developed.

L. monocytogenes = L. monocytogenes challenged with ST4SA in in vitro gastro-intestinal (GIT) model; format: cell-based, Listeria monocytogenes
Experimental: The antimicrobial activity of ST4SA against L. monocytogenes in an in vitro gastro-intestinal model was determined. ST4SA was inoculated in the stomach vessel as described hereinbefore. L. monocytogenes (1×10^4) was inoculated in the duodenum vessel of the GIT. Samples were taken from each vessel and plated out on Enterococcus and Listeria specific medium, respectively. As control, only L. monocytogenes was inoculated in the GIT model.

virulence factors = assay: Virulence factors assayed (in vitro tests and/or PCR screening); set-up: species or system Enterococcus mundtii
From the text: The presence of virulence factors, viz. vancomycin resistance (VanA/VanB/VanC1/VanC2/VanC3), production of gelatinase (Gel), aggregation substance (AS), adhesin of collagen from enterococci (Ace), enterococcus surface protein (Esp), haemolysin/bacteriocin (Cyl) and non-cytolysin beta hemolysin genes were studied by in vitro tests and/or PCR screening. DNA was extracted from E. mundtii ST4 according to standard methods. The primers designed for amplification of the latter genes were as described.

Substance: Peptide ST4SA: broad-spectrum antibacterial peptide (bacteriocin) produced by Enterococcus mundtii strain ST4SA, SEQ. ID. NO. 12 (MSQVVGGKYYGNGVSCNKKGCSVDWGKAIGIIGNNSAANLATGGAAGWKS; ENTEROCOCCUS MUNDTII ST4SA)
- Growth of pathogenic bacteria on red meat [1]: prevented the growth of pathogenic bacteria
- Time to adsorb to PE ([2]; PE film, 60% isopropanol, peptide 102 400 AU/ml): ≤ 60 s
- Antimicrobial activity of peptide-coated PE film ([2]; agar diffusion, L. sakei DSM 20017): high antimicrobial activity
- Time to release of peptide from the surface of PE ([2]; electro-elution, current of 30 mA, SDS-buffer): ≥ 1 h
- percentage binding to the pathogens (pathogens tested): at least 75%
- Stability [3]: Stability decreased after one week
- Time peptide remained stable ([3]; powder form, room temperature (25° C.)): 6 months
- Time peptide remained stable ([3]; suspended in sterile distilled water, 4° C.): three weeks
- Time peptide remained stable ([3]; suspended in sterile distilled water, −20° C.): 42 days
- Cytokine (TNF or IFN) expression [4]: did not indicate any cytokine (TNF or IFN) expression
- L. monocytogenes lower than control (L. monocytogenes; ileum vessel, compared with the control): 1×10^1 cfu/ml
- Growth of L. monocytogenes (L. monocytogenes; jejunum vessel, reduced from 8×10^4 (control)): 2×10^4
- Virulence factor AS (Aggregation substance) (virulence factors): −
- Virulence factor Ace (Adhesin to collagen from E. faecalis) (virulence factors): −
- Virulence factor Cyl (Cytolysin, β-hemolysin activity) (virulence factors): +
- Virulence factor Efa-Afm (E. faecium endocarditis antigen) (virulence factors): −
- Virulence factor Efa-Afs (E. faecalis endocarditis antigen) (virulence factors): −
- Virulence factor Esp (Enterococcus surface protein) (virulence factors): −
- Virulence factor Gel (Gelatinase production) (virulence factors): −
- Virulence factor Non-cyt (non-cytolysin beta hemolysin III) (virulence factors): +
- Virulence factor Van A (Vancomycin resistance) (virulence factors): −
- Virulence factor Van B (Vancomycin resistance) (virulence factors): −
- Virulence factor Van C1/2/3 (virulence factors): −
